# Source: patent US12624123B2, “Compositions and methods for reducing off-target toxicity of antibody drug conjugates” (The Research Foundation for The State University of New York, priority 2019, dated 2026)
# Substitutions are numbered along the chain they refer to. Several values for one entry are separate records, joined by “and”; a condition that tells them apart may be missing. Equal values may be shown once. Entries after “also recorded” stand apart in the source; their conditions may differ. Read-outs that look alike come from different tables or passages of the source.
# B1: 8C2 Fab: Fab of 8C2 by papain digestion; heavy SEQ ID NO:4, light SEQ ID NO:5 (antibody)
# heavy: MKCSWVIFFLMAVVTGVNSEEVQLQQSGAELVKPGASVKLSCTASGFNIKDTYIHWVKQRPEQGLEWIGMIDLANDNTKYDPKFQGKATIITDTSSNKAYLQVSSLTSEDTAVYYCATWGAIITLGGWGQGTLVTVSAAKTTPPSVYPLAPGSAAQTNSMVTLGCLVKGYFPEPVTVTWNSGSLSSGVHTFPAVLQSDLYTLSSSVTVPSSTWPSETVTCNVAN
# light: MSVLTQVLALLLLWLTGARCDIQMTQSPASLSASVGETVTITCRASGNIHNSLAWYQQIKGRSPQLLVYNAKTLADGVPSRFSGSGSGTQYSLKINSLHPEDFGSYYCQHFWSTPFTFGSGTKLEIKRADAAPTVSIFPPSSEQLTSGGASVVCFLNNFYPKDINVKWKIDGSEERQNGVLNSWTDQDSKDSTYSMSSTLTLTKD
# modifications: 8C2 Fab heavy chain; 8C2 Fab light chain
# B2: DT3B3 (protein)
# VHH: EVQLVESGGGLVQAGGSLRLSCALSGGTLRSYTMGWIRQAPGKEREFVAGNRWSGGRTYYADSVKGRFTISGDNAENTVYLQMNSLKPEDTAVYYCTADVTEYGEDSSAYWGRGTQVTVSS
# modifications: DT3B3
# B3: DT3H3 (protein)
# VHH: EVQLVESGGGLVQPGGSLRLSCAASGRTFSHDHMGWFRQAPGKEREFVAAISWTSSTYYGDSVKGRFTISRSNAKNTVYLQMNSLKPEDTAIYYCSWGVGYWGQGTQVTVSS
# B4: DF3A4 (protein)
# VHH: QVQLQESGGGLVQPGGSLRLSCAASGSIFGISYMGWYRQAPGKQREPVALITSGGSTYYADSVKGRVTISRDNAKKTVYLQMNSLRPEDTSTYYCAAGFYRSDSPNRYDYWGQGTQVTVSS
# modifications: DF3A4
# B5: DMOH9: affinity matured Anti-DM1/DM4 sdAb, SEQ ID NO:32 (protein)
# VHH: B4 VHH with S32T, L50M, F99Y
# modifications: DMOH9
# B6: DMFH2 (protein)
# VHH: B4 VHH with I28T, L50M, A60V
# modifications: DMFH2
# B7: DF4B12 (protein)
# VHH: B4 VHH with Q1E, Q5V, S56D, Y58A, A60G, V67F, K76N, R86T, Y93F
# modifications: DF4B12
# B8: DMOF8 (protein)
# VHH: B4 VHH with L50M, G54S, K64R, D72A, F99Y
# modifications: DMOF8
# B9: DMFB8 (protein)
# VHH: B4 VHH with L50M, N83Y, F99Y
# modifications: DMFB8
# B10: DMFF2 (protein)
# VHH: B4 VHH with A60V, F99Y
# modifications: DMFF2
# Legend:
# Ramos cells = assay: MTT cytotoxicity of calicheamicin on Ramos cells; type: cell-based; conditions: 24 h, calicheamicin alone
# Procedure: (§1) Log-phase MOLM-14, Ramos (RA 1), HT-29, LS174T, or NCI-N87 cells were seeded in 96-well microtiter plates at a density of 20,000 cells/well, 20,000 cells/well, 5,000 cells/well, 5,000 cells/well, and 10,000 cells/well, respectively, in 100 μL of culture medium. HT-29, LS174T, and NCI-N87 cells were allowed to adhere for 24 h before cell culture media was aspirated and replaced with 100 μL of fresh media containing a range of treatment for, 48 (LS174T), 96 (NCI-N87), or 120 (HT-29) h. MOLM-14 and Ramos cells were re-suspended with treatment solutions, where 100 μL of cell-treatment suspension was aliquoted into wells of a 96-well plate for 24 h. Treatment solutions consisted of calicheamicin, MMAE, topotecan, or SN38 with or without immunized animal plasma, purified anti-drug antibody, or antibody-drug conjugate (ADC) with or without plasma or anti-drug antibody. For MOLM-14 and Ramos cells, 25 μL of MTT solution (5 mg/mL in pH 7.4 1× PBS) was added directly to wells following treatment incubation. For adherent cells, treatment media was aspirated from wells and cells were washed three times with 100 μL of fresh media. Following the final wash, 100 μL of complete media and 25 μL of MTT solution were added to each well. Cells were incubated for 4 h in order to allow cells to reduce MTT to formazan dye. Once MTT was reduced, 100 μL of 10% SDS prepared in 0.01 M HCl was added to each well and incubated overnight to solubilize the formazan crystals. Formazan dye was measured at 570 nm and normalized by cell debris at 690 nm.
# (§2) Fresh media containing a range of treatment were pre-incubated with or without 100 μM purified sdAb at room temperature for 30 minutes. Log-phase MOLM-14 cells were seeded in 96-well microtiter plates at a density of 20,000 cells/well, and were re-suspended with treatment solutions, where 100 μL of cell-treatment suspension was aliquoted into wells of a 96-well plate for 24 h. 25 μL of MTT solution (5 mg/mL in pH 7.4 1× PBS) was added directly to wells following treatment incubation. […] Formazan dye was measured at 570 nm and normalized by cell debris at 690 nm.
# MOLM-14 cells = assay: MTT cytotoxicity of calicheamicin on MOLM-14 cells; type: cell-based, human; conditions: 24 h, 100 μM peptide or sdAb
# Procedure: as §1, §2
# SK-BR-3 cells [1] = assay: MTT cytotoxicity assay in SK-BR-3 cells; type: cell-based
# NCI-N87 cells = assay: Cell cytotoxicity with exatecan and trastuzumab deruxtecan, NCI-N87 cells; type: cell-based; conditions: for IC50: free exatecan alone
# Procedure: Cells were incubated with the drug mixture for 24 hours at 37° C., 5% CO2. After incubation drug containing cell culture media was aspirated and 250 μL of fresh RPMI was added, allowing cells to grow for another 4 days. Then cell culture media was aspirated and 125 μL of RPMI with a final concentration of 1 mg/ml MTT was added followed by a four-hour incubation. MTT crystals were dissolved in 0.01 M HCL/10% SDS overnight at 37° C. followed by absorbance reading at 570 nm (corrected to 640 nm).
# Lovo cells = assay: MTT cytotoxicity of DM1 and DM4 on Lovo cells; type: cell-based; conditions: for IC50: DM1 alone, read-out: IC50 of DM1
# Procedure: Log-phase Lovo or MOLM-14 cells were seeded in 96-well microtiter plates at a density of 5,000 cells/well, in 100 μL or 70 μL of culture medium, respectively. […] MOLM-14 cells were re-suspended with treatment solutions, where 100 μL of cell-treatment suspension was aliquoted into wells of a 96-well plate for 24 h. Treatment solutions consisted of DM-4 with or without purified anti-drug sdAb. For MOLM-14 cells, 10 μL of MTT solution (5 mg/mL in pH 7.4 1× PBS) was added directly to wells following treatment incubation. For adherent cells, treatment media was aspirated from wells and cells were washed three times with 100 μL of fresh media. Following the final wash, 100 μL of complete media and 25 μL of MTT solution were added to each well. Cells were incubated for 4 h in order to allow cells to reduce MTT to formazan dye. Once MTT was reduced, 100 μL of 10% SDS prepared in 0.01 M HCl was added to each well and incubated overnight to solubilize the formazan crystals. Formazan dye was measured at 570 nm and normalized by cell debris at 690 nm.
# [2] = SPR dissociation screening on DM1-Biotin chip; type: binding; conditions: 20 min dissociation phase
# Procedure: Preliminary screening of DM1/4 binders were performed using a neutravidin SPR chip with DM1-Biotin on the left channel. Phagemid purified sdAbs were flowed over the SPR chip for 2 minutes at a flow rate of 25 ul/min. After binding, sdAb was dissociated for 20 minutes. Observed sensorgrams were fit to an individual dissociation rate constant for each construct. Equilibrium and kinetic binding of 3A2 was assessed using a CM5 SPR chip with TDM1 immobilized on the left channel. […] Rate constants for 3A2-TDM1 association and dissociation were obtained through fitting of the observed sensorgrams for the 1.25, 2.5, 5, 7.5 and 10 nM injections to a 1:1 Langmuir binding model.
# [3] = Competitive ELISA with free DM4; type: binding; conditions: for Kd: free DM4, read-out: Estimated KD; for IC50: read-out: Estimated binding affinity IC50 to free DM4
# Procedure: To determine the binding affinity of the anti-DM4 sdAbs to DM4-conjugates and free DM4, indirect ELISA and competitive ELISA were employed. Briefly, ELISA plate were coated overnight with 100 μL of neutravidin at different concentration ranging from 1 μg/mL to 10 μg/mL. After blocking with 200 μL of 2% skimmed milk-PBST for 1 h, 100 μL of 1 μM biotin-DM4 solution was added into each well and incubated for 30 min, then 100 μL of purified anti-DM4 sdAb solution at concentration ranging from 0.1 nM to 1 μM was added and incubated for 1 h. Bound sdAbs were detected with HRP conjugated anti-His antibody and TMB substrate. After the linear range of binding was determined via the indirect ELISA, a concentration of anti-DM4 sdAb near the IC50 of binding was selected to proceed with competitive ELISA. For the competitive ELISA, anti-DM4 sdAb concentration was held constant as determined from the indirect ELISA and incubated with increasing concentration of DM4 ranging from 0.1 nM to 1 μM.
# SK-BR-3 cells [4] = assay: MTT cytotoxicity assay in SK-BR-3 cells; type: cell-based; conditions: 24 h exposure, 10 μM sdAb
# Procedure: Positive clone sdAbs' DNA in pComb3XSS plasmid was isolated and transferred into pET-22b expression vector in SHuffle cells for expression. SK-BR-3 cells were used to test the anti-DM4 sdAbs effect on DM4 cytotoxicity. Briefly, 2,500 cells/well were seeded into a 96-well plate and allowed to adhere for 24 h before cell culture media was aspirated and replaced with 100 μL of fresh media solution containing with or without 10 μM of anti-DM4 sdAb and a range of DM4 concentration for another 24 h exposure period. The cells were then washed 2 times before replacing with fresh media and allowed to grow for additional 72 h.
molecule,measurement,setting,value
calicheamicin,IC50,Ramos cells,2.5 nM and 2.98 nM
same,IC50,Ramos cells; listed as Calicheamicin,2.5 ± 0.224 nM
anti-calicheamicin peptide SWWFPQWMAQYPGGGS (SEQ ID NO:2) [C9],fold change of calicheamicin IC50,MOLM-14 cells,3.56 fold
T-DM1 [reference compound],IC50,"SK-BR-3 cells [1]; 24 h, without DMFH1, read-out: IC50 of T-DM1",0.0128 nM
"CC[C@@]1(O)C(=O)OCc2c1cc1n(c2=O)Cc2c-1nc1cc(F)c(C)c3c1c2[C@@H](N)CC3 [exatecan, reference compound]",IC50,"NCI-N87 cells; Homo sapiens, NCI-N87, NCI-N87 cells",1.5 nM
same,IC50,NCI-N87 cells; NCI-N87 cells,2.1 nM
COc1cc2cc(c1Cl)N(C)C(=O)C[C@H](OC(=O)[C@H](C)N(C)C(=O)CCS)[C@]1(C)O[C@H]1[C@H](C)[C@@H]1C[C@@](O)(NC(=O)O1)[C@H](OC)/C=C/C=C(\C)C2 [DM1],IC50,"SK-BR-3 cells [1]; 24 h exposure, DM1 alone, read-out: IC50 of DM1",4.43 nM
same,IC50,Lovo cells; 6 h exposure,30.5 nM and 22.1 nM
same,IC50,Lovo cells; 24 h exposure,3.07 nM and 2.12 nM
anti-calicheamicin peptide HSWHWPSWWAGGGGGS (SEQ ID NO:1) [C2],fold change of calicheamicin IC50,MOLM-14 cells,5.69 fold
B1,effect on trastuzumab deruxtecan cytotoxicity,"NCI-N87 cells; NCI-N87 cells, ADC with 8C2 mAb or Fab",did not prevent cell death; also recorded: does not significantly alter
B2,dissociation kinetics,[2],longest dissociation rates; also recorded: longer dissociation rates
B3,dissociation kinetics,[2],longest dissociation rates; also recorded: longer dissociation rates
B4,fold shift of DM4 IC50,Lovo cells; 6 h exposure,5.88 fold
same,fold shift of DM1 IC50,"Lovo cells; 6 h exposure, 10 μM sdAb",14.8 fold
B5,Kd,[3],20 nM and 19.9 nM
same,IC50,[3],20 nM
same,Fold shifted (DM4 IC50),SK-BR-3 cells [4],210 fold and 209.5 fold
B6,Kd,[3],25 nM and 25.2 nM
same,IC50,[3],25 nM
same,Fold shifted (DM4 IC50),SK-BR-3 cells [4],150 fold and 149.4 fold
B7,fold shift of DM4 IC50,Lovo cells; 6 h exposure,15.5 fold
same,fold shift of DM1 IC50,"Lovo cells; 6 h exposure, 10 μM sdAb",53 fold
same,fold shift of DM4 IC50,"Lovo cells; 24 h exposure, 10 μM sdAb",8.66 fold and 9.4 fold
B8,Kd,[3],26 nM and 26.2 nM
same,IC50,[3],26 nM
same,Fold shifted (DM4 IC50),SK-BR-3 cells [4],104 fold and 104.1 fold
B9,Fold shifted (DM4 IC50),SK-BR-3 cells [4],140 fold and 140.2 fold
B10,Kd,[3],57 nM and 56.6 nM
same,IC50,[3],57 nM
same,Fold shifted (DM4 IC50),SK-BR-3 cells [4],95 fold and 93.65 fold
